The text below walks through data of the supplement of paper PMC10567573.

This series can be described thus: protein stability index of a GFP-peptide fusion (GPS, HEK-293T) (PSI 1-6); higher = more stable.
Where [1] appears, read: treatment: DMSO, c terminus: a fixed tail appended.
The mark [2] stands for this setting: treatment: MLN4924 1 uM, 8 h, c terminus: a fixed tail appended.
[3] abbreviates: treatment: DMSO, c terminus: native.
[4] abbreviates: treatment: MLN4924 1 uM, 8 h, c terminus: native.

± gives the standard deviation.
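Note: 24-mer peptide tiles fused after GFP, lentivirally expressed, FACS-sorted into six equal bins by GFP/DsRed ratio, decoded by Illumina sequencing, PSI is the read-weighted mean bin number.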

In the case of AWEDSHGSQDGHFVLSCSYDGLDC [SCNN1D], the protein stability index is, setting by setting: under setting [1], 3.73 ± 0.17; under setting [2], 3.59 ± 0.19.

GRLSMAAADIVNFLTVGSVLQMWH [ZBTB22]: the protein stability index under setting [1] is 3.33 ± 0.17 and the protein stability index under setting [2] was 3.4 ± 0.48.

For SYSPASASSGGAGAAVGTGSSYPT [JUNB], the protein stability index by setting is: under setting [1], 4.41 ± 0.27; under setting [2], 4.61 ± 0.094.

As to DRGTRVVFIDFSVYNANINLFCVL [PKD2L1], the protein stability index is, setting by setting: under setting [1], 3.11 ± 0.08; under setting [2], 2.95 ± 0.31.

As to DTGLFSRSKSGSEEVLCDSCIGNK [TRIM29], the protein stability index by setting is: under setting [1], 4.61 ± 0.1; under setting [2], 4.92 ± 0.23.

On to VLDVNNQSFREQEEPSNKRVRPLA [NET1], for which the protein stability index stood at 3.46 ± 0.2 under setting [1] and 3.99 ± 0.28 under setting [2].

In the case of LRASGSLCGPHAKAPYLCEATHEP, the protein stability index runs as follows: under setting [1], 2.84 ± 0.22; under setting [2], 3.1 ± 0.27.

In turn, RNKIIAATIENAQPILQIDNARLA [KRT16] displayed a protein stability index under setting [1] of 3.35 ± 0.13 and a protein stability index under setting [2] of 3.64 ± 0.14.

In the case of PLLMNRQRVPKVLVENAKNFPQCV [EFHC1], the protein stability index amounted to 2.46 ± 0.44 under setting [1] and 2.47 ± 0.072 under setting [2].

In the case of EMDKLRASDIMEPNLTYVYPHTRI [CLCN6], the protein stability index by setting is: under setting [1], 2.58 ± 0.23; under setting [2], 2.92 ± 0.31.

GVIQSVIGWKTVRMYPFQIHSIAL [CDS2]: the protein stability index is 2.81 ± 0.34 under setting [1] and 2.94 ± 0.35 under setting [2].

For NICHVWHMNVEALPEWISCLIQKA [RNF180], the protein stability index reads like this: under setting [1], 2.01 ± 0.24; under setting [2], 2.57 ± 0.38.

LGTAIFIEADRRRAQLHVQGLLHE [SPNS1]: the protein stability index reads like this: under setting [1], 2.46 ± 0.36; under setting [2], 2.17 ± 0.31.

As to ITAFYNEARARARANRGILQQERQ [DNAJC4], the protein stability index stood at 3.4 ± 0.5 under setting [1] and 3.81 ± 0.36 under setting [2].

As for KIGCGNFGELRLGKNLYTNEYVAI [CSNK1G1], the protein stability index by setting is: under setting [1], 2.51 ± 0.54; under setting [2], 2.12 ± 0.59.

For the sequence LAALSATISFRIYKSVLQAVQKTD [RTN1], the protein stability index was 2.53 ± 0.76 under setting [1] and 2.28 ± 0.54 under setting [2].

For the sequence AMREAIQSYPSQDKPLPPPPPGSL [SOAT2], the protein stability index by setting is: under setting [1], 4.23 ± 0.12; under setting [2], 4.04 ± 0.35.

Regarding GRPSMVWLSANPCPHCGDRTFYDP [PRAME], the protein stability index under setting [1] amounted to 2.24 ± 0.26 and the protein stability index under setting [2] stood at 2.33 ± 0.41.

In the case of QMVSAIVRTMQNTNDVETARCTAG [CTNNB1], the protein stability index runs as follows: under setting [1], 2.87 ± 0.12; under setting [2], 2.93 ± 0.3.

For the sequence LVVFAVLGFKANIMNEKCVVENAE [SLC6A17], the protein stability index under setting [1] turned out to be 2.97 ± 0.32 and the protein stability index under setting [2] worked out at 2.82 ± 0.39.

Consider HRRELESSGAGSSPPAAPCPPPPG [ZBED3], for which the protein stability index runs as follows: under setting [1], 5.12 ± 0.29; under setting [2], 5.24 ± 0.16.

Regarding NYVLEEVDEAAAESPSFLSLRKGA [NCK2], the protein stability index is 4.75 ± 0.2 under setting [1] and 4.83 ± 0.13 under setting [2].

On to NMQQPMNVMTQSFGAVNLSSPSNM [CLINT1], for which the protein stability index came to 3.44 ± 0.17 under setting [1] and 3.66 ± 0.17 under setting [2].

Consider ISLRVYRKVLQAVHRGDGANPFQA [RTN2], for which the protein stability index under setting [1] is 2.59 ± 0.46 and the protein stability index under setting [2] turned out to be 2.2 ± 0.32.

For the sequence VKEKFSPEAFTEQLYRYVTKLLV [ALG2], the protein stability index worked out at 3.38 ± 0.3 under setting [3] and 3.16 ± 0.16 under setting [4].

Consider VIYNYVQRPFIRMSWEKEEGKSRH [BTBD10], for which the protein stability index reads like this: under setting [1], 2.24 ± 0.32; under setting [2], 2.46 ± 0.17.

For the sequence IILTNQSVREVTQIKCIELKSELG [P2RY14], the protein stability index is 2.14 ± 0.23 under setting [1] and 2.27 ± 0.19 under setting [2].

As for PQKLLGCSPALKRSHSDSLDHDIF [CDC25A], the protein stability index came to 3.12 ± 0.28 under setting [1] and 3.24 ± 0.33 under setting [2].

Regarding SHRVVLRPRGKERHKSGVHQPPQA [LYSMD4], the protein stability index is 3.91 ± 0.2 under setting [1] and 3.98 ± 0.3 under setting [2].

LPIIQSNQVSSNSWGIAGETELAL [DLC1] registered a protein stability index under setting [1] of 3.52 ± 0.48 and a protein stability index under setting [2] of 3.63 ± 0.2.

With EAEKDGVKVPTTLAEYCIKTKVPS [UBE2R2], the protein stability index is, setting by setting: under setting [1], 5.08 ± 0.19; under setting [2], 5.15 ± 0.2.

Take SKIPFKILSGHEHAVSTCHFCVDD [WDR88]: the protein stability index by setting is: under setting [1], 2.91 ± 0.25; under setting [2], 3.07 ± 0.26.

On to GALMEVMQKRSKAIHSSDEDEDED [WASL], for which the protein stability index reads like this: under setting [1], 5.49 ± 0.19; under setting [2], 5.41 ± 0.17.

Take FRKVKQMHLNFMDEKDRIITAFYN [DNAJC4]: the protein stability index amounted to 2.26 ± 0.2 under setting [1] and 2.41 ± 0.28 under setting [2].

Turning to GEKPYKCTHCSKSFRQRAGLIMHQ [ZNF449], the protein stability index runs as follows: under setting [1], 3.59 ± 0.46; under setting [2], 3.75 ± 0.27.

In turn, TFSLKTVLMIAIQLISRMEYVHSK [CSNK1G3] displayed a protein stability index under setting [1] of 3.5 ± 0.67 and a protein stability index under setting [2] of 3.16 ± 0.46.

Consider ESQASRKEEGLPEEEPSHVTGREG [ZNF8], for which the protein stability index is 5.62 ± 0.1 under setting [1] and 5.59 ± 0.2 under setting [2].

Take SAFTAAHELGHVFNMLHDNSKPCI [ADAMTS4]: the protein stability index was determined as 2.93 ± 0.094 under setting [1] and 3 ± 0.19 under setting [2].

On to SFSGKVFPFFAVWKKGSCLTLKG [TRIM15], for which the protein stability index reads like this: under setting [3], 3.25 ± 0.88; under setting [4], 2.92 ± 0.61.

In the case of VMLTLSDSKHVVLPVDDDSDLNVV [RBBP5], the protein stability index is, setting by setting: under setting [1], 3.51 ± 0.14; under setting [2], 3.49 ± 0.25.

On to EHFGIVPLEAMYMQCPVIAVNSGG [ALG2], for which the protein stability index under setting [1] stood at 2.33 ± 0.11 and the protein stability index under setting [2] amounted to 2.59 ± 0.37.

On to DEDDSTSRFSSSTEQSSASRLMRR [DVL3], for which the protein stability index was 5.28 ± 0.25 under setting [1] and 5.36 ± 0.26 under setting [2].

Turning to CEHICVNSDDSYTCECLEGFRLAE [MATN2], the protein stability index is 4.11 ± 0.69 under setting [1] and 4.71 ± 0.62 under setting [2].

In the case of KCQVGFSSSDLVMRARDSVYHIEC [ISL2], the protein stability index runs as follows: under setting [1], 1.99 ± 0.36; under setting [2], 2.3 ± 0.31.

In the case of PDLPFQIKPSENHYSLLTSQPLDR [PCDHGC5], the protein stability index reads like this: under setting [1], 3.97 ± 0.22; under setting [2], 4.13 ± 0.14.

GGTDPHGYHQVPGSAAPGSPLAAD [FOXJ1]: the protein stability index by setting is: under setting [1], 5.11 ± 0.099; under setting [2], 5.234 ± 0.051.

LLDEEEALAKKFIDKNTQLTLQVY [TRIM14]: the protein stability index reads like this: under setting [1], 2.53 ± 0.42; under setting [2], 2.72 ± 0.34.

Turning to QKELKKAQMAKAAAEERALFTDRM [WEE1], the protein stability index under setting [1] stood at 4.69 ± 0.19 and the protein stability index under setting [2] amounted to 4.67 ± 0.16.

As to DKFVATMYHYLQFAYYKLNDVRQA [P3H4], the protein stability index is, setting by setting: under setting [1], 2.75 ± 0.39; under setting [2], 2.77 ± 0.47.

For LLEDPLCADVILVLQERVRIFAHK [RHOBTB2], the protein stability index turned out to be 2.21 ± 0.21 under setting [1] and 2.5 ± 0.25 under setting [2].

Consider ERRGTPADTEEPTKDPDVAFHGLS [PSD2], for which the protein stability index is, setting by setting: under setting [1], 5.38 ± 0.42; under setting [2], 5.38 ± 0.17.

As to FLPLNSAQTLHHKSCYNGRFQLLY [DNAAF3], the protein stability index is, setting by setting: under setting [1], 2.54 ± 0.32; under setting [2], 2.38 ± 0.36.

As for SSSSSFGSGFGGGYGGGLGAGFGG [KRT16], the protein stability index is, setting by setting: under setting [1], 2.65 ± 0.46; under setting [2], 2.89 ± 0.3.

As to MHMVDLMSSIICEGDTVSQELLDT [PDS5B], the protein stability index is, setting by setting: under setting [1], 3.6 ± 0.31; under setting [2], 3.57 ± 0.14.

As to EFHPHHCNTFVYSSSKGTIRLCDM [PPP2R2B], the protein stability index by setting is: under setting [1], 2.31 ± 0.29; under setting [2], 2.15 ± 0.18.

Consider CCEFLKRQLDPSNCLGIRAFADTH [KLHL20], for which the protein stability index amounted to 2.62 ± 0.69 under setting [1] and 2.42 ± 0.48 under setting [2].

On to KCRDLSALMHELSNDGARRQFEFY [BTBD10], for which the protein stability index runs as follows: under setting [1], 2.06 ± 0.3; under setting [2], 2.23 ± 0.3.

For the sequence AKNQSDEAKEAKGSGYEKLGPSRD [RTP4], the protein stability index by setting is: under setting [1], 5.47 ± 0.16; under setting [2], 5.34 ± 0.26.

Sequence TWAMRQRGTHAVVGVATADAPLHS [SPSB1] came in with a protein stability index under setting [1] of 2.72 ± 0.34 and a protein stability index under setting [2] of 2.87 ± 0.23.

FKLTNKNSDRMTHCGVLEFVADEG [UFD1]: the protein stability index stood at 3.32 ± 0.18 under setting [1] and 3.27 ± 0.31 under setting [2].

As to LASYPLALVRTRMQAQASIEGAPE [SLC25A25], the protein stability index is, setting by setting: under setting [1], 4.03 ± 0.19; under setting [2], 4.18 ± 0.43.

SFAILRIIRLVRVFRIFKLSRHSK [KCNA4]: the protein stability index is, setting by setting: under setting [1], 2.2 ± 0.4; under setting [2], 2.44 ± 0.15.

As to ELRLYKQQVKKLEKALKKNVKLQE [CEP70], the protein stability index was 2.8 ± 0.59 under setting [1] and 3.08 ± 0.25 under setting [2].

Turning to ALQAPHSPSKTDGKELAGTMDGEG [PBXIP1], the protein stability index reads like this: under setting [1], 5.25 ± 0.25; under setting [2], 5.34 ± 0.084.

For ALSGVGGIRLPNGKLKCDICGIIC [IKZF1], the protein stability index reads like this: under setting [1], 1.96 ± 0.26; under setting [2], 2.1 ± 0.34.

Take DALSSPTSVQEADETTRSDISERP [C2CD2L]: the protein stability index turned out to be 5.64 ± 0.35 under setting [1] and 5.61 ± 0.24 under setting [2].

For the sequence PLVGQDEFFLEQTKKKGVKRPARL [NOP53], the protein stability index runs as follows: under setting [1], 4.18 ± 0.41; under setting [2], 4.2 ± 0.19.

For the sequence QPHLPLLSTLAGIRVMVHGRNHTP [SCNN1D], the protein stability index runs as follows: under setting [1], 2.52 ± 0.24; under setting [2], 2.62 ± 0.26.

Turning to EFNELLSKYQLSEAQLSLIRDIRR [NFE2L1], the protein stability index by setting is: under setting [1], 2.57 ± 0.22; under setting [2], 2.82 ± 0.38.

Consider FQEAAGPREALSRLQELCHGWLRP [ZNF263], for which the protein stability index worked out at 2.66 ± 0.4 under setting [1] and 2.67 ± 0.35 under setting [2].

For the sequence VASKMKETIPLTAEKLCIYTDNSI [CCND1], the protein stability index runs as follows: under setting [1], 3.15 ± 0.42; under setting [2], 3.33 ± 0.084.

On to FRDATSAPLRKLSVDLIKTYKHIN [DYRK1B], for which the protein stability index by setting is: under setting [1], 3.36 ± 0.17; under setting [2], 3.39 ± 0.27.
